To fix the notation:
B1: library; a variant is named by its letters at N, in order (parent)
chain: AATGTTGTTGATGCAACCATAAAGTGATATTTAATAATTATTTATAATCAGCAACTTAACCACAAAACAACCATATATTGATATNTCACAAAACAACCATAANTTGATATTTTTGTGAATCGAGTATTTCAGCAAAACTACTGCAGTAAGAA

The variants in data set [1] derive from B1. The data set can be described thus: relative integration efficiency (T-LR orientation) vs wild-type transposon end (log2 (normalized fold change)); transposon end mutated: left end; higher = more efficient transposition. The settings on record: with VchCAST RNA-guided transposition machinery (E. coli BL21(DE3) host, lacZ target). An outline of the steps: (§1)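 Relative integration efficiency is a fold change of output over input barcode abundance, normalised to reference barcodes and log-transformed. Input plasmids and genomic integration junctions were PCR-amplified and Illumina-sequenced from E. coli BL21(DE3) co-transformed with a T7-driven effector plasmid and pUC57 donor pools of 1549 left-end or 1849 right-end transposon variants. Plating was done with 0.1 mM IPTG at 37°C for 18 h, with two biological output replicates and four reference barcodes.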

The variants in data set [2] derive from B1. The data set is described as follows: relative integration efficiency (T-RL orientation) vs wild-type transposon end (log2 (normalized fold change)); transposon end mutated: left end; higher = more efficient transposition. The settings on record: with VchCAST RNA-guided transposition machinery (E. coli BL21(DE3) host, lacZ target). An outline of the steps:
as §1

± gives the standard deviation of the averaged measurements.

Regarding CG A90T A91T A92T A93T, the “relative integration efficiency (log2)” value in data set [1] is -0.429 ± 0.24; in data set [2] it was -0.557 ± 0.36.

As to CG A119T T120A, the “relative integration efficiency (log2)” value is -0.0736 ± 0.29 in data set [1] and -0.226 ± 0.056 in data set [2].

Consider CG A77T T78A T79A G80C, for which the “relative integration efficiency (log2)” value in data set [1] is -3.86 ± 2.7; in data set [2] it was -2.18 ± 0.89.

CG A67T C68G A69T A70T: the “relative integration efficiency (log2)” value in data set [1] was -1.78 ± 0.54; in data set [2] it was -1.55 ± 0.73.

In the case of CG A81C, the “relative integration efficiency (log2)” value in data set [1] is -0.551 ± 0.4; in data set [2], -0.479 ± 0.28.

With CG A81T, the entries for the “relative integration efficiency (log2)” value in data set [1] and in data set [2] were -0.4 ± 0.15 and -0.396 ± 0.57, respectively.

In the case of CG A81G, the “relative integration efficiency (log2)” value in data set [1] was -0.37 ± 0.32; in data set [2], -0.449 ± 0.27.

Take CG A118T: the “relative integration efficiency (log2)” value in data set [1] is -0.185 ± 0.24; in data set [2] it was -0.0188 ± 0.11.

In the case of CG A118G, the “relative integration efficiency (log2)” value in data set [1] is -0.0561 ± 0.73; in data set [2], -0.144 ± 0.097.

As to CG A118C, the figures for the “relative integration efficiency (log2)” value in data set [1] and in data set [2] were 0.243 ± 0.42 and -0.0886 ± 0.026, respectively.

As for CG A77C T78G, the “relative integration efficiency (log2)” value in data set [1] turned out to be 0.461 ± 0.32; in data set [2] it was 0.644 ± 0.21.

Regarding CG A66T A67T C68G A69T, the “relative integration efficiency (log2)” value in data set [1] was -1 ± 0.9; in data set [2] it was -0.447 ± 0.35.

As to CG A70C, the entries for the “relative integration efficiency (log2)” value in data set [1] and in data set [2] were 0.268 ± 0.068 and 0.0994 ± 0.073, respectively.

Turning to CG A70T, the results for the “relative integration efficiency (log2)” value in data set [1] and in data set [2] were -0.297 ± 0.68 and -0.12 ± 0.26, respectively.

As for CG A70G, the “relative integration efficiency (log2)” value in data set [1] was -0.515 ± 0.21; in data set [2] it was -0.664 ± 0.41.

Take CG A64G: the results for the “relative integration efficiency (log2)” value in data set [1] and in data set [2] were -0.0623 ± 0.097 and -0.383 ± 0.14, respectively.

Take CG A64C: the “relative integration efficiency (log2)” value in data set [1] is -0.814 ± 1.1; in data set [2], -0.0626 ± 0.11.

On to CG A64T, for which the entries for the “relative integration efficiency (log2)” value in data set [1] and in data set [2] were -0.053 ± 0.081 and -0.229 ± 0.11, respectively.

Consider CG A62T C63G, for which the “relative integration efficiency (log2)” value in data set [1] was -0.0229 ± 0.67; in data set [2], 0.275 ± 0.072.

For the variant CG A59T C60G, the “relative integration efficiency (log2)” value in data set [1] is 0.263 ± 0.38; in data set [2], -0.145 ± 0.073.

Regarding CG A70T C71G, the “relative integration efficiency (log2)” value was -0.292 ± 0.66 in data set [1] and -0.898 ± 0.41 in data set [2].

In the case of CG A75T, the “relative integration efficiency (log2)” value in data set [1] was -0.0748 ± 0.42; in data set [2], -0.289 ± 0.15.

CG A75G: the “relative integration efficiency (log2)” value in data set [1] was -0.592 ± 0.42; in data set [2], -0.877 ± 0.4.

As for CG A75C, the entries for the “relative integration efficiency (log2)” value in data set [1] and in data set [2] were 0.0557 ± 0.24 and 0.219 ± 0.63, respectively.

GG A83T T84A T86A: the “relative integration efficiency (log2)” value was -0.405 ± 0.36 in data set [1] and -0.604 ± 0.36 in data set [2].

CG A64T A65T: the “relative integration efficiency (log2)” value in data set [1] turned out to be 0.0165 ± 0.48; in data set [2], 0.469 ± 0.084.

Consider CG A107T T108A, for which the figures for the “relative integration efficiency (log2)” value in data set [1] and in data set [2] were -0.991 ± 0.38 and -0.981 ± 0.55, respectively.

On to CG A96T C97G C98G A99T, for which the “relative integration efficiency (log2)” value in data set [1] was -2 ± 1.1; in data set [2] it was -2.05 ± 0.9.

Take CG A69C A70C C71A C72A: the “relative integration efficiency (log2)” value was -1.64 ± 0.34 in data set [1] and -1.88 ± 0.72 in data set [2].

Take TG A70C T76A T84A C87A: the figures for the “relative integration efficiency (log2)” value in data set [1] and in data set [2] were 0.577 ± 0.018 and -0.0929 ± 0.15, respectively.

With CG A90T A91T, the “relative integration efficiency (log2)” value was 0.245 ± 0.23 in data set [1] and -0.308 ± 0.26 in data set [2].

As for CG A75C T76G, the “relative integration efficiency (log2)” value in data set [1] was -2.22 ± 0.87; in data set [2] it was -1.59 ± 0.54.

As to CG A83T T84A, the entries for the “relative integration efficiency (log2)” value in data set [1] and in data set [2] were -0.352 ± 0.65 and -0.194 ± 0.16, respectively.

Turning to CG C14T, the “relative integration efficiency (log2)” value was 0.167 ± 0.37 in data set [1] and -0.295 ± 0.18 in data set [2].

For CG C14G, the “relative integration efficiency (log2)” value was -0.527 ± 0.35 in data set [1] and -0.0895 ± 0.33 in data set [2].

As to CG C14A, the “relative integration efficiency (log2)” value in data set [1] is -0.739 ± 0.55; in data set [2], -0.546 ± 0.32.

On to CG C49A A50C, for which the “relative integration efficiency (log2)” value was -0.934 ± 0.45 in data set [1] and -0.598 ± 0.47 in data set [2].

CG A77C T86G: the “relative integration efficiency (log2)” value is 0.141 ± 0.0087 in data set [1] and -0.217 ± 0.029 in data set [2].

As for CG A66C A67C, the “relative integration efficiency (log2)” value is -0.404 ± 0.29 in data set [1] and -0.0641 ± 0.033 in data set [2].

Turning to CG A91T A92T A93T C94G, the “relative integration efficiency (log2)” value in data set [1] was -1.3 ± 1.2; in data set [2], -1.4 ± 0.69.

Regarding CG A101C A102C, the “relative integration efficiency (log2)” value is -1.64 ± 0.96 in data set [1] and -1.55 ± 0.55 in data set [2].

Turning to CG C17G C71G C97G, the “relative integration efficiency (log2)” value in data set [1] was -1.57 ± 1; in data set [2], -1.28 ± 0.76.

Regarding CG A69T, the “relative integration efficiency (log2)” value in data set [1] is -0.153 ± 0.2; in data set [2] it was -0.525 ± 0.1.

With CG A69C, the “relative integration efficiency (log2)” value was -0.309 ± 0.7 in data set [1] and -0.363 ± 0.1 in data set [2].

As to CG A69G, the “relative integration efficiency (log2)” value in data set [1] was -0.41 ± 0.78; in data set [2], -0.422 ± 0.41.

For CG A92G, the “relative integration efficiency (log2)” value in data set [1] was -0.495 ± 0.53; in data set [2], -0.563 ± 0.18.

In the case of CG A92C, the “relative integration efficiency (log2)” value was -0.321 ± 0.19 in data set [1] and -0.313 ± 0.19 in data set [2].

In the case of CG A92T, the “relative integration efficiency (log2)” value in data set [1] is 0.606 ± 0.37; in data set [2] it was -0.0452 ± 0.064.

For CG C49G A50T G51C C52G, the “relative integration efficiency (log2)” value is -1.24 ± 0.76 in data set [1] and -1.58 ± 0.9 in data set [2].

Consider CG A77T T78A, for which the “relative integration efficiency (log2)” value in data set [1] was found to be 0.574 ± 0.48; in data set [2] it was 0.149 ± 0.12.

Take CG C14A A15C: the “relative integration efficiency (log2)” value is -0.0841 ± 0.4 in data set [1] and -0.0319 ± 0.34 in data set [2].

With CG A93C C94A A95C A96C, the “relative integration efficiency (log2)” value is -0.979 ± 1.9 in data set [1] and -1.09 ± 0.56 in data set [2].

Take CG A73C T74G: the “relative integration efficiency (log2)” value was -2.3 ± 0.72 in data set [1] and -2.37 ± 0.86 in data set [2].

Consider CG A73T T74A A75T T76A, for which the “relative integration efficiency (log2)” value in data set [1] is -1.64 ± 0.86; in data set [2] it was -0.919 ± 0.62.

As to CG A102T, the figures for the “relative integration efficiency (log2)” value in data set [1] and in data set [2] were 0.323 ± 0.19 and -0.123 ± 0.24, respectively.

Consider CG A102C, for which the “relative integration efficiency (log2)” value is -1.3 ± 0.53 in data set [1] and -1.12 ± 0.46 in data set [2].

For the variant CG A102G, the “relative integration efficiency (log2)” value is -1.58 ± 1.1 in data set [1] and -0.825 ± 0.55 in data set [2].

As for CG A64C A65C, the “relative integration efficiency (log2)” value is -0.354 ± 0.13 in data set [1] and -0.201 ± 0.15 in data set [2].

Source of the values: the supplement of paper PMC10201428.
